# Assay results taken from FireProtDB (doi:10.1021/bi020461s).
# B1: Glutamate dehydrogenase, P96110 (parent)
# chain: MPEKSLYEMAVEQFNRAASLMDLESDLAEVLRRPKRVLIVEFPVRMDDGHVEVFTGYRVQHNVARGPAKGGIRYHPDVTLDEVKALAFWMTWKTAVMNLPFGGGKGGVRVDPKKLSRNELERLSRRFFSEIQVIIGPYNDIPAPDVNTNADVMAWYMDTYSMNVGHTVLGIVTGKPVELGGSKGREEATGRGVKVCAGLAMDVLGIDPKKATVAVQGFGNVGQFAALLISQELGSKVVAVSDSRGGIYNPEGFDVEELIRYKKEHGTVVTYPKGERITNEELLELDVDILVPAALEGAIHAGNAERIKAKAVVEGANGPTTPEADEILSRRGILVVPDILANAGGVTVSYFEWVQDLQSFFWDLDQVRNALEKMMKGAFNDVMKVKEKYNVDMRTAAYILAIDRVAYATKKRGIYP
# Variants of: B1
# Conditions: Thermotoga maritima (strain ATCC 43589 / DSM 3109 / JCM 10099 / NBRC 100826 / MSB8), pH 7, CD, sodium phosphate 20 mM, reversible: yes, structure 1B26, whole UniProt chain shown
Variant,"ddG of mutation (higher = less stable) (20 °C, GdnHCl) [kcal/mol]","denaturant m value (20 °C, GdnHCl) [kcal/mol/M]","denaturant midpoint (higher = more stable) (20 °C, GdnHCl) [M]","unfolding free energy (20 °C, GdnHCl) [kcal/mol]","ddG of mutation (higher = less stable) (20 °C, Urea) [kcal/mol]","denaturant m value (20 °C, Urea) [kcal/mol/M]","denaturant midpoint (higher = more stable) (20 °C, Urea) [M]","unfolding free energy (20 °C, Urea) [kcal/mol]",Tm (Thermal) [°C],"change of melting temperature, mutant - wild type (higher = more stable) (Thermal) [°C]",unfolding enthalpy (van 't Hoff) (Thermal) [kcal/mol],"ddG of mutation (higher = less stable) (69.5 °C, Thermal) [kcal/mol]"
MPEKSLYEMAVEQFNRAASLMDLESDLAEVLRRPKRVLIVEFPVRMDDGHVEVFTGYRVQHNVARGPAKGGIRYHPDVTLDEVKALAFWMTWKTAVMNLPFGGGKGGVRVDPKKLSRNELERLSRRFFSEIQVIIGPYNDIPAPDVNTNADVMAWYMDTYSMNVGHTVLGIVTGKPVELGGSKGREEATGRGVAVCAGLAMDVLGIDPKKATVAVQGFGNVGQFAALLISQALGSKVVAVSDSRGGIYNPEGFDVEELIRYKKEHGTVVTYPKGERITNEELLELDVDILVPAALEGAIHAGNAERIKAKAVVEGANGPTTPEADEILSRRGILVVPDILANAGGVTVSYFEWVQDLQSFFWDLDQVRNALEKMMKGAFNDVMKVKEKYNVDMRTAAYILAIDRVAYATKKRGIYP [K194A E232A],-0.92,2.73,2.04,6.04,-0.51,1.42,3.67,5.36,71.2,1.7,52.7,
MPEKSLYEMAVEQFNRAASLMDLESDLAEVLRRPKRVLIVEFPVRMDDGHVEVFTGYRVQHNVARGPAKGGIRYHPDVTLDEVKALAFWMTWKTAVMNLPFGGGKGGVRVDPKKLSRNELERLSRRFFSEIQVIIGPYNDIPAPDVNTNADVMAWYMDTYSMNVGHTVLGIVTGKPVELGGSKGREEATGAGVAVCAGLAMDVLGIDPKKATVAVQGFGNVGQFAALLISQALGSKVVAVSDSRGGIYNPEGFDVEELIRYKKEHGTVVTYPKGERITNEELLELDVDILVPAALEGAIHAGNAERIKAKAVVEGANGPTTPEADEILSRRGILVVPDILANAGGVTVSYFEWVQDLQSFFWDLDQVRNALEKMMKGAFNDVMKVKEKYNVDMRTAAYILAIDRVAYATKKRGIYP [R191A E232A K194A],-0.03,2.72,1.74,5.15,-0.04,1.42,3.35,4.89,70.8,1.3,50.6,-0.2
MPEKSLYEMAVEQFNRAASLMDLESDLAEVLRRPKRVLIVEFPVRMDDGHVEVFTGYRVQHNVARGPAKGGIRYHPDVTLDEVKALAFWMTWKTAVMNLPFGGGKGGVRVDPKKLSRNELERLSRRFFSEIQVIIGPYNDIPAPDVNTNADVMAWYMDTYSMNVGHTVLGIVTGKPVELGGSKGREEATGRGVKVCAGLAMDVLGIDPKKATVAVQGFGNVGQFAALLISQALGSKVVAVSDSRGGIYNPEGFDVEELIRYKKEHGTVVTYPKGERITNEELLELDVDILVPAALEGAIHAGNAERIKAKAVVEGANGPTTPEADEILSRRGILVVPDILANAGGVTVSYFEWVQDLQSFFWDLDQVRNALEKMMKGAFNDVMKVKEKYNVDMRTAAYILAIDRVAYATKKRGIYP [E232A],0.95,3,1.41,4.17,0.35,1.6,3.08,4.5,68.4,-1.1,41,0.17
MPEKSLYEMAVEQFNRAASLMDLESDLAEVLRRPKRVLIVEFPVRMDDGHVEVFTGYRVQHNVARGPAKGGIRYHPDVTLDEVKALAFWMTWKTAVMNLPFGGGKGGVRVDPKKLSRNELERLSRRFFSEIQVIIGPYNDIPAPDVNTNADVMAWYMDTYSMNVGHTVLGIVTGKPVELGGSKGREEATGRGVAVCAGLAMDVLGIDPKKATVAVQGFGNVGQFAALLISQELGSKVVAVSDSRGGIYNPEGFDVEELIRYKKEHGTVVTYPKGERITNEELLELDVDILVPAALEGAIHAGNAERIKAKAVVEGANGPTTPEADEILSRRGILVVPDILANAGGVTVSYFEWVQDLQSFFWDLDQVRNALEKMMKGAFNDVMKVKEKYNVDMRTAAYILAIDRVAYATKKRGIYP [K194A],-0.98,2.74,2.06,6.1,,,,,71,1.5,53.8,-0.23
